Five molecules from US20220048967A1 (published 2022) can be followed below.

Numbered stars: 1 amine (or outer) side, 2 acyl side, 3 side chain; on linkers, the order of the positions; unused ones are H or OH. Square brackets hold non-standard residues; d marks the D form. Side chains are listed from the residue outwards. Ends that are not written are not given here. * marks the point of attachment. C20 diacid = O=C(O)CCCCCCCCCCCCCCCCCCC(=O)*; C18 diacid = O=C(O)CCCCCCCCCCCCCCCCC(=O)*; γGlu = O=C(O)[C@H](CCC(=O)[*:2])N[*:1]; AEEA = NCCOCCOCC(=O)O; Aib = CC(C)(N)C(=O)O

The target in assay [1] is human GLP-1 receptor (GLP-1R) (human, UniProt P43220 24-463). Description: cell-based or functional assay.
The target of assay [2] is T1, human gastric inhibitory peptide receptor (GIPR) (human, UniProt P48546 22-466).
T1 sequence (looked up): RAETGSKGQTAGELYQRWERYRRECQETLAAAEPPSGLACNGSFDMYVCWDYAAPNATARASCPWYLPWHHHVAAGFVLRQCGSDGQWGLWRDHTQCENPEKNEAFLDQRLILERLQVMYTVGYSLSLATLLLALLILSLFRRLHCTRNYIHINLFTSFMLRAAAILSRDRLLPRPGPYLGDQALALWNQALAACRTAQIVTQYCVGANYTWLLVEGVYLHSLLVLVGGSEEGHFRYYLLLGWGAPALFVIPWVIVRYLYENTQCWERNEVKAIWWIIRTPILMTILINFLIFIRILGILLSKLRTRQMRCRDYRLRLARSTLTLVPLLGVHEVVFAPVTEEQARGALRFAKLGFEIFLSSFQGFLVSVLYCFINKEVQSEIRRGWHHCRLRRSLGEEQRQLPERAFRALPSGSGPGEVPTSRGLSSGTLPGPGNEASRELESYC
Description: cell-based or functional assay.

B1: Example 317 (peptide)
peptide: Y[Aib]EGTFTSDYSILLDKK([AEEA-AEEA-γGlu-C20 diacid])AQ[Aib]AFIEYLIAGGPSSG-NH2
modifications: N-terminus assumed
SMILES: CC[C@H](C)[C@H](NC(=O)[C@H](CC(C)C)NC(=O)[C@H](Cc1ccc(O)cc1)NC(=O)[C@H](CCC(=O)O)NC(=O)[C@@H](NC(=O)[C@H](Cc1ccccc1)NC(=O)[C@H](C)NC(=O)C(C)(C)NC(=O)[C@H](CCC(N)=O)NC(=O)[C@H](C)NC(=O)[C@H](CCCCNC(=O)COCCOCCNC(=O)COCCOCCNC(=O)CC[C@H](NC(=O)CCCCCCCCCCCCCCCCCCC(=O)O)C(=O)O)NC(=O)[C@H](CCCCN)NC(=O)[C@H](CC(=O)O)NC(=O)[C@H](CC(C)C)NC(=O)[C@H](CC(C)C)NC(=O)[C@@H](NC(=O)[C@H](CO)NC(=O)[C@H](Cc1ccc(O)cc1)NC(=O)[C@H](CC(=O)O)NC(=O)[C@H](CO)NC(=O)[C@@H](NC(=O)[C@H](Cc1ccccc1)NC(=O)[C@@H](NC(=O)CNC(=O)[C@H](CCC(=O)O)NC(=O)C(C)(C)NC(=O)[C@@H](N)Cc1ccc(O)cc1)[C@@H](C)O)[C@@H](C)O)[C@@H](C)CC)[C@@H](C)CC)C(=O)N[C@@H](C)C(=O)NCC(=O)NCC(=O)N1CCC[C@H]1C(=O)N[C@@H](CO)C(=O)N[C@@H](CO)C(=O)NCC(N)=O
With B1, in assay [1], the “hGLP1R cAMP EC50 ratio” value is 0.333 and the “hGLP1R cAMP Rel EC50” value came out at 172 pM. Moreover, in assay [2], the “hGIPR cAMP EC50 ratio” value came to 1.01 and the “hGIPR cAMP Rel EC50” value turned out to be 94.8 pM.

B2: Example 319 (peptide)
peptide: Y[Aib]EGTFTSDYSILLDKK([AEEA-AEEA-γGlu-C20 diacid])AQ[Aib]EFIEYLIAGGPSSGAPPPS-NH2
modifications: N-terminus assumed
SMILES: CC[C@H](C)[C@H](NC(=O)[C@H](CC(C)C)NC(=O)[C@H](Cc1ccc(O)cc1)NC(=O)[C@H](CCC(=O)O)NC(=O)[C@@H](NC(=O)[C@H](Cc1ccccc1)NC(=O)[C@H](CCC(=O)O)NC(=O)C(C)(C)NC(=O)[C@H](CCC(N)=O)NC(=O)[C@H](C)NC(=O)[C@H](CCCCNC(=O)COCCOCCNC(=O)COCCOCCNC(=O)CC[C@H](NC(=O)CCCCCCCCCCCCCCCCCCC(=O)O)C(=O)O)NC(=O)[C@H](CCCCN)NC(=O)[C@H](CC(=O)O)NC(=O)[C@H](CC(C)C)NC(=O)[C@H](CC(C)C)NC(=O)[C@@H](NC(=O)[C@H](CO)NC(=O)[C@H](Cc1ccc(O)cc1)NC(=O)[C@H](CC(=O)O)NC(=O)[C@H](CO)NC(=O)[C@@H](NC(=O)[C@H](Cc1ccccc1)NC(=O)[C@@H](NC(=O)CNC(=O)[C@H](CCC(=O)O)NC(=O)C(C)(C)NC(=O)[C@@H](N)Cc1ccc(O)cc1)[C@@H](C)O)[C@@H](C)O)[C@@H](C)CC)[C@@H](C)CC)C(=O)N[C@@H](C)C(=O)NCC(=O)NCC(=O)N1CCC[C@H]1C(=O)N[C@@H](CO)C(=O)N[C@@H](CO)C(=O)NCC(=O)N[C@@H](C)C(=O)N1CCC[C@H]1C(=O)N1CCC[C@H]1C(=O)N1CCC[C@H]1C(=O)N[C@@H](CO)C(N)=O
Turning to B2, in assay [1], the “hGLP1R cAMP EC50 ratio” value is 0.522 and the “hGLP1R cAMP Rel EC50” value was 113 pM. In assay [2], the “hGIPR cAMP EC50 ratio” value worked out at 2.77 and the “hGIPR cAMP Rel EC50” value was determined as 54 pM.

B3: Example 318 (peptide)
peptide: Y[Aib]EGTFTSDYSILLDKK([AEEA-AEEA-γGlu-C20 diacid])AQ[Aib]EFIEYLIAGGPSSG-NH2
modifications: N-terminus assumed
SMILES: CC[C@H](C)[C@H](NC(=O)[C@H](CC(C)C)NC(=O)[C@H](Cc1ccc(O)cc1)NC(=O)[C@H](CCC(=O)O)NC(=O)[C@@H](NC(=O)[C@H](Cc1ccccc1)NC(=O)[C@H](CCC(=O)O)NC(=O)C(C)(C)NC(=O)[C@H](CCC(N)=O)NC(=O)[C@H](C)NC(=O)[C@H](CCCCNC(=O)COCCOCCNC(=O)COCCOCCNC(=O)CC[C@H](NC(=O)CCCCCCCCCCCCCCCCCCC(=O)O)C(=O)O)NC(=O)[C@H](CCCCN)NC(=O)[C@H](CC(=O)O)NC(=O)[C@H](CC(C)C)NC(=O)[C@H](CC(C)C)NC(=O)[C@@H](NC(=O)[C@H](CO)NC(=O)[C@H](Cc1ccc(O)cc1)NC(=O)[C@H](CC(=O)O)NC(=O)[C@H](CO)NC(=O)[C@@H](NC(=O)[C@H](Cc1ccccc1)NC(=O)[C@@H](NC(=O)CNC(=O)[C@H](CCC(=O)O)NC(=O)C(C)(C)NC(=O)[C@@H](N)Cc1ccc(O)cc1)[C@@H](C)O)[C@@H](C)O)[C@@H](C)CC)[C@@H](C)CC)C(=O)N[C@@H](C)C(=O)NCC(=O)NCC(=O)N1CCC[C@H]1C(=O)N[C@@H](CO)C(=O)N[C@@H](CO)C(=O)NCC(N)=O
Consider B3, for which, in assay [1], the “hGLP1R cAMP EC50 ratio” value turned out to be 0.482 and the “hGLP1R cAMP Rel EC50” value was 124 pM. Moreover, in assay [2], the “hGIPR cAMP EC50 ratio” value is 1.69 and the “hGIPR cAMP Rel EC50” value was 54.7 pM.

B4: Example 316 (peptide)
peptide: Y[Aib]EGTFTSDYSILLDKK([AEEA-AEEA-γGlu-C18 diacid])AQ[Aib]AFIEYLIAGGPSSGAPPPS-NH2
modifications: N-terminus assumed
SMILES: CC[C@H](C)[C@H](NC(=O)[C@H](CC(C)C)NC(=O)[C@H](Cc1ccc(O)cc1)NC(=O)[C@H](CCC(=O)O)NC(=O)[C@@H](NC(=O)[C@H](Cc1ccccc1)NC(=O)[C@H](C)NC(=O)C(C)(C)NC(=O)[C@H](CCC(N)=O)NC(=O)[C@H](C)NC(=O)[C@H](CCCCNC(=O)COCCOCCNC(=O)COCCOCCNC(=O)CC[C@H](NC(=O)CCCCCCCCCCCCCCCCC(=O)O)C(=O)O)NC(=O)[C@H](CCCCN)NC(=O)[C@H](CC(=O)O)NC(=O)[C@H](CC(C)C)NC(=O)[C@H](CC(C)C)NC(=O)[C@@H](NC(=O)[C@H](CO)NC(=O)[C@H](Cc1ccc(O)cc1)NC(=O)[C@H](CC(=O)O)NC(=O)[C@H](CO)NC(=O)[C@@H](NC(=O)[C@H](Cc1ccccc1)NC(=O)[C@@H](NC(=O)CNC(=O)[C@H](CCC(=O)O)NC(=O)C(C)(C)NC(=O)[C@@H](N)Cc1ccc(O)cc1)[C@@H](C)O)[C@@H](C)O)[C@@H](C)CC)[C@@H](C)CC)C(=O)N[C@@H](C)C(=O)NCC(=O)NCC(=O)N1CCC[C@H]1C(=O)N[C@@H](CO)C(=O)N[C@@H](CO)C(=O)NCC(=O)N[C@@H](C)C(=O)N1CCC[C@H]1C(=O)N1CCC[C@H]1C(=O)N1CCC[C@H]1C(=O)N[C@@H](CO)C(N)=O
In the case of B4, in assay [1], the “hGLP1R cAMP EC50 ratio” value worked out at 0.644 and the “hGLP1R cAMP Rel EC50” value worked out at 122 pM. Besides, in assay [2], the “hGIPR cAMP EC50 ratio” value is 3.75 and the “hGIPR cAMP Rel EC50” value worked out at 24 pM.

B5: Example 315 (peptide)
peptide: YXEGTFTSDYSILLDKKAQXAFIEYLIEGGPSSGAPPPS
modifications: Aib2, (2-[2-(2-Amino-ethoxy)-ethoxy]-acetyl)2-(γ-Glu)-CO-(CH2)16-CO2H on K17, Aib20, C-terminal NH2
Turning to B5, the “hGLP1R cAMP Rel EC50” value in assay [1] came to 65.1 pM. Moreover, in assay [2], the “hGIPR cAMP Rel EC50” value was determined as 40.8 pM.
